Test [1] concerns the target T1, endogenous IP3R1 (inositol 1,4,5-trisphosphate receptor 1) (human, UniProt Q14643 1-2758, limits assumed).
T1 construct: Endogenous protein co-precipitated from cell lysate; also called ITPR1
The experiment in a line: anti-Flag M2 resin immunoprecipitation from MCF7 cells, Western blot.

The target of test [2] is T2, endogenous IP3R3 (inositol 1,4,5-trisphosphate receptor 3) (human, UniProt Q14573 1-2671).
T2 construct: Endogenous protein co-precipitated from cell lysate; also called ITPR3
The description is as above.

A further test deals with T3, endogenous HSPA9 (human, UniProt P38646 47-679).
T3 construct: Endogenous protein co-precipitated from cell lysate
T3 sequence (P38646 47-679 limits assumed): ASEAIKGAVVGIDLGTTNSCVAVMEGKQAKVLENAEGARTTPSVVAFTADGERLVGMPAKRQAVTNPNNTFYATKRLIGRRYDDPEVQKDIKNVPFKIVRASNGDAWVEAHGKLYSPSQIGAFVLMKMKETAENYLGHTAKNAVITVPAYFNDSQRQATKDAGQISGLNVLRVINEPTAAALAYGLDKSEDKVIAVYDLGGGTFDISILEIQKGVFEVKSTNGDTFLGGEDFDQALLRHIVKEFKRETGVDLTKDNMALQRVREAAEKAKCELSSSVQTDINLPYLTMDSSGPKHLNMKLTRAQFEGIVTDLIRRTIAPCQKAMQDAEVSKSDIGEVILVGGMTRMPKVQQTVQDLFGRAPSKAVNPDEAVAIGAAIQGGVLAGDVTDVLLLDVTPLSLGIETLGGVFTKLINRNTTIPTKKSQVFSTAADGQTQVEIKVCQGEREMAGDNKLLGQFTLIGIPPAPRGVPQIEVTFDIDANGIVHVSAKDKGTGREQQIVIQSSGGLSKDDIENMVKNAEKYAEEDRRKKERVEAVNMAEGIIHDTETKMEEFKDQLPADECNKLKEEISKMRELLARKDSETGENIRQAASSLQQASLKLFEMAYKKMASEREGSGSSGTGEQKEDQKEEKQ
Briefly: anti-Flag co-immunoprecipitation from MCF7 cell lysates, Western blot. In general terms: A western blot detects proteins with antibodies after separation by electrophoresis.

Test [3] has as its target T4, GST-CARM1 fusion protein (glutathione S-transferase tagged co-activator associated arginine methyltransferase … (UniProt Q86X55 1-608)).
T4 construct: Expressed in E. coli BL-21, purified on glutathione sepharose; also called GST tagged CARM1; not shown: glutathione S-transferase (GST) tag
T4 sequence (looked up): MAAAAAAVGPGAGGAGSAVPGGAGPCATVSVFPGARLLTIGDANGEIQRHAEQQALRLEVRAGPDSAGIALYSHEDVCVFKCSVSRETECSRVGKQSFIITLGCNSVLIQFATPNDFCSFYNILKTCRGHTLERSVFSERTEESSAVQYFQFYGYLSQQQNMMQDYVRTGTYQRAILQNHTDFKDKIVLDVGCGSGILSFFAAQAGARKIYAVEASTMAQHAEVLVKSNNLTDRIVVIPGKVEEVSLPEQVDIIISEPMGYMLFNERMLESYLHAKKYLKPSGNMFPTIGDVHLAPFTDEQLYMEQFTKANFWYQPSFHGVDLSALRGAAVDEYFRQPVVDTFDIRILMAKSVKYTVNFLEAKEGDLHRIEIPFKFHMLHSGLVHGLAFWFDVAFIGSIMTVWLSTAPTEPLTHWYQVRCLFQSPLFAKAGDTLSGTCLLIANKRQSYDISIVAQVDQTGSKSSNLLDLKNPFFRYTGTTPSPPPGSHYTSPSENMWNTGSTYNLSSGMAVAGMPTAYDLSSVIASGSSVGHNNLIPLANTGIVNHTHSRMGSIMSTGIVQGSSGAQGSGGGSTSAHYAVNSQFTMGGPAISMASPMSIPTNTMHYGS
Briefly: in vitro interaction assay, in vitro translated Flag-PKM2 truncation with GST-CARM1. The procedure:
Flag-tagged full length PKM2 and its truncations constructs were translated by T7 Quick Coupled Translation/Transcription system (Promega). […] The beads were washed 4 times with binding buffer, and recombinant proteins were eluted with 500 μg/ml 3× Flag peptides. Samples were analyzed by SDS-PAGE and Western blotting.

T1 sequence (Q14643 whole entry): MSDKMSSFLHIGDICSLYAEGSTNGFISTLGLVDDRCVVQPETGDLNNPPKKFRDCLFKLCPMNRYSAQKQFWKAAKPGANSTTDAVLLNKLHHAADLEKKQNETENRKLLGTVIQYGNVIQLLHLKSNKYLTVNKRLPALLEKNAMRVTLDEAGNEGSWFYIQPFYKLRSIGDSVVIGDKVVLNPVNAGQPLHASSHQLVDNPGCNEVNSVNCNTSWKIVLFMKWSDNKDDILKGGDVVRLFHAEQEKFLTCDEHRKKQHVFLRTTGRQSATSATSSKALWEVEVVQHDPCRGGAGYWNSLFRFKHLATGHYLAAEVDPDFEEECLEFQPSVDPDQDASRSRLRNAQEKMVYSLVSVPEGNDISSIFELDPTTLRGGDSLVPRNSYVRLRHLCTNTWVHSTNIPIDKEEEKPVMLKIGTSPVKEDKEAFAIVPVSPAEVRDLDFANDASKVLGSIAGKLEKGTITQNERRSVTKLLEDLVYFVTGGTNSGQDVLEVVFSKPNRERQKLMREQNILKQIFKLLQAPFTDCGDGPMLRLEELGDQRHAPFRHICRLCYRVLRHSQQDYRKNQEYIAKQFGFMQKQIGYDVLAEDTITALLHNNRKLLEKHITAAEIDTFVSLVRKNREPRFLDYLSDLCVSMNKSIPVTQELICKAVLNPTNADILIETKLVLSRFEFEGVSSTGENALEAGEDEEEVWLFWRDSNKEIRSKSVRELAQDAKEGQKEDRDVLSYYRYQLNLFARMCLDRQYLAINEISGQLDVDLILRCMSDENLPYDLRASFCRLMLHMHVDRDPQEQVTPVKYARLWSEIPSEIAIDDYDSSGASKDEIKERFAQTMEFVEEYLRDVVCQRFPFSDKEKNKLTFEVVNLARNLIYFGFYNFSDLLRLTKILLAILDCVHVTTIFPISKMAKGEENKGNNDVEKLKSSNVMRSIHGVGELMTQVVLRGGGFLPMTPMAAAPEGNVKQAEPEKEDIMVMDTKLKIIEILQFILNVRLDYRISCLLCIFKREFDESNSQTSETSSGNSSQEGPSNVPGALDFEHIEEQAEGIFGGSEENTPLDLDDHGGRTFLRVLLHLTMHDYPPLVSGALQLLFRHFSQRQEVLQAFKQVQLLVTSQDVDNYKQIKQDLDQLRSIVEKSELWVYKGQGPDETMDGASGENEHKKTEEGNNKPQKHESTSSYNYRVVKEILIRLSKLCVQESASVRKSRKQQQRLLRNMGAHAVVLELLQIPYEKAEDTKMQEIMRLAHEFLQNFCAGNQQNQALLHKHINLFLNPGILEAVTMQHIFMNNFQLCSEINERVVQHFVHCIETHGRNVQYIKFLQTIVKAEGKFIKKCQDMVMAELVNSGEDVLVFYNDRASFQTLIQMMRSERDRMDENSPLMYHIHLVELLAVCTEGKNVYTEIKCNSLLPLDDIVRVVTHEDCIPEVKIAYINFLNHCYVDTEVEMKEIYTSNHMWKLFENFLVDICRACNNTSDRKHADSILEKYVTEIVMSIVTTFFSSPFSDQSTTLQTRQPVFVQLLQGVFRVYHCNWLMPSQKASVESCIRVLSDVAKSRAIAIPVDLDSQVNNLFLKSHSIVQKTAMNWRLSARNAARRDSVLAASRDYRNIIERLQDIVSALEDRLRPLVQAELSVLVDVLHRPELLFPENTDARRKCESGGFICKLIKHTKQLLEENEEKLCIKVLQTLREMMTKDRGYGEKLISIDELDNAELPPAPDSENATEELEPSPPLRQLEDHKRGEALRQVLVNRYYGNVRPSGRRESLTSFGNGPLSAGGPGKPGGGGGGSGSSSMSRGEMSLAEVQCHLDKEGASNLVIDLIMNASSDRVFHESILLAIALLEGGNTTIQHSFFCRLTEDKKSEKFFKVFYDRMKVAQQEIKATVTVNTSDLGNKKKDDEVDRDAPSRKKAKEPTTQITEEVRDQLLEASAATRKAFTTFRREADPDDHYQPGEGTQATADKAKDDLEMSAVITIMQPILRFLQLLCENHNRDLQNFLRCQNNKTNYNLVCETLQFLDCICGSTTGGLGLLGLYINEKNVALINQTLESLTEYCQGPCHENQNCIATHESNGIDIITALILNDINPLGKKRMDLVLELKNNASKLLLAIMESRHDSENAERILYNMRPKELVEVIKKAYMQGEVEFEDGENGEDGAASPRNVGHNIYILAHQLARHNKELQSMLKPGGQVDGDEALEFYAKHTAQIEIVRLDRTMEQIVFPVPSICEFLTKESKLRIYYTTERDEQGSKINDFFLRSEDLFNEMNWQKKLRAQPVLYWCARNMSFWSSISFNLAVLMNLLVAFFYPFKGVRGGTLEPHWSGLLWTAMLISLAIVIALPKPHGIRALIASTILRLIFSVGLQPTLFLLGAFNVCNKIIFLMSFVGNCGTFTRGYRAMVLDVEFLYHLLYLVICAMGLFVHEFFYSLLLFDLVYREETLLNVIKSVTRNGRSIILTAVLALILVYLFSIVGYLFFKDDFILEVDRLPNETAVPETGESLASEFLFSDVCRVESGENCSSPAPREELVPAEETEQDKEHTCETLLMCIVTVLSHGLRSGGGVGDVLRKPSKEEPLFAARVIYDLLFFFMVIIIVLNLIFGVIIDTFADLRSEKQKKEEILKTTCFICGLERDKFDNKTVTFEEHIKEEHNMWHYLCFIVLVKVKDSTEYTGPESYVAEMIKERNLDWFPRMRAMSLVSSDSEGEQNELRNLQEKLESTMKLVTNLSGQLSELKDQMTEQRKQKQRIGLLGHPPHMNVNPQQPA

B1: Flag-tagged PKM2^mut (R445K, R447K and R455K), methylation-defective PKM2 (enzyme)
chain: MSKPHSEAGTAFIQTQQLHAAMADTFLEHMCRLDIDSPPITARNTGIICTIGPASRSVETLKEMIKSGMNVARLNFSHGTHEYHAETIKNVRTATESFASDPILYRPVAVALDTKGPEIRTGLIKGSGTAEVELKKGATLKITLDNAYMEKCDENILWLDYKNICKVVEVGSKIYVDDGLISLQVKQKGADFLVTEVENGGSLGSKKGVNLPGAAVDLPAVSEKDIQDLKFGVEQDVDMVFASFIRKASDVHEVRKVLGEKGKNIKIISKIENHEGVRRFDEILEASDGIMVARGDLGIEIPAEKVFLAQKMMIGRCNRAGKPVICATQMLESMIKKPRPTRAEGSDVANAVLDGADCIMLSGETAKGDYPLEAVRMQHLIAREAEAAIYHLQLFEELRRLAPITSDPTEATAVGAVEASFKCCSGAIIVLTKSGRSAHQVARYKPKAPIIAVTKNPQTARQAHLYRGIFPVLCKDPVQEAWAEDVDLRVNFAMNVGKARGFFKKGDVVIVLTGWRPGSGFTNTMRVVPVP
notes: Stably expressed in MCF7 (and MDA-MB-231) PKM2 KO cells; precipitated with anti-Flag M2 resin; also called PKM2 R445/447/455K; not shown: left out
With B1, the binding result in test [1] and in test [2] was “no binding” in each case.

B2: Flag-tagged PKM1 (pyruvate kinase M1) (enzyme)
chain: not shown
notes: Purified recombinant protein in the GST pull-down; expressed in MCF7 or HEK293T PKM2 KO cells in the co-immunoprecipitations; also called Flag-PKM1; recombinant PKM1; not shown: Flag tag
Turning to B2, the binding result in the test with endogenous HSPA9 is “no binding”.

B3: truncated Flag-PKM2 with truncation of both the C domain and the N/A1 domain (enzyme)
chain: not shown
notes: In vitro translated; also called 48 (as printed, probably delta-8); not shown: Flag tag
For the molecule B3, the binding result in test [3] was “no binding”.

The values above are taken from patent publication US20200276130A1 (WISCONSIN ALUMNI RESEARCH FOUNDATION, published 2020).
